How the values were obtained:
[1] = target: Fc gamma receptor CD16a F variant (human) (UniProt P08637); test: ELISA, plate coated with recombinant huCD16a (F variant), detection with peroxidase anti-human IgG F(ab')2, OD 450 nm - 630 nm
[2] = target: human Dectin-1 (isoform not given) (human) (UniProt Q9BXN2); test: flow cytometry on human monocytes
[3] = target: cynomolgus monkey Dectin-1 (cynomolgus monkey); test: flow cytometry, cynomolgus monkey monocytes
[4] = target: human Dectin-1 isoform A (human) (UniProt Q9BXN2); test: flow cytometry on HEK-Blue hDectin-1a cells
Sequence of human Dectin-1 isoform A (human) (Q9BXN2 whole entry, canonical isoform): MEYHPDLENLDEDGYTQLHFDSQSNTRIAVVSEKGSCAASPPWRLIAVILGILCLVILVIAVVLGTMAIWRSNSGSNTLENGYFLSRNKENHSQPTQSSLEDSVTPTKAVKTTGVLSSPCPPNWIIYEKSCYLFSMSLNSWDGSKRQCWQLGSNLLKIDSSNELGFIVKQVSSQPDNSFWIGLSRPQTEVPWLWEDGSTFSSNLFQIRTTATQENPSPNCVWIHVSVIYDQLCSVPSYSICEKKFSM

[5] = target: human Dectin-1 isoform B (human) (UniProt Q9BXN2); test: flow cytometry on HEK-Blue hDectin-1b cells
Sequence of human Dectin-1 isoform B (human) (Q9BXN2 other isoform, or with tags, fused parts or gaps): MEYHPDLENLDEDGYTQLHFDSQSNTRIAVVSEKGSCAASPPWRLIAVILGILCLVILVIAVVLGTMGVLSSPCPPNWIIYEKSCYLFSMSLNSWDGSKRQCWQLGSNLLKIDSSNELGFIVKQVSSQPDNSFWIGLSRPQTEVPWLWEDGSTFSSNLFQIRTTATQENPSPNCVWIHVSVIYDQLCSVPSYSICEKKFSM

[6] = target: human Dectin-1 isoform A (human) (UniProt Q9BXN2); test: flow cytometry on HEK293F hDectin-1a FL cells
[7] = target: cynomolgus monkey Dectin-1 (cynomolgus monkey); test: flow cytometry on cynomolgus monkey monocytes

Sequence of human Dectin-1 (isoform not given) (human) (Q9BXN2 whole entry, canonical isoform): as the sequence (Q9BXN2 whole entry, canonical isoform) above
Sequence of cynomolgus monkey Dectin-1 (cynomolgus monkey) (chain, as listed by the source): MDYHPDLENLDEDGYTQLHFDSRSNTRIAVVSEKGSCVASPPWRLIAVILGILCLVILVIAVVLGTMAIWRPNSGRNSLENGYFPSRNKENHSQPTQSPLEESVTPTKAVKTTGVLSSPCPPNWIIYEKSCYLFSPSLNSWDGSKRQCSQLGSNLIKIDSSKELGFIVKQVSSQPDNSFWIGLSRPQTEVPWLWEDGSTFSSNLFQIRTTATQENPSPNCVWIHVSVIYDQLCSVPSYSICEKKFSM
Sequence of Fc gamma receptor CD16a F variant (human) (P08637 17-208 limits assumed, change not shown): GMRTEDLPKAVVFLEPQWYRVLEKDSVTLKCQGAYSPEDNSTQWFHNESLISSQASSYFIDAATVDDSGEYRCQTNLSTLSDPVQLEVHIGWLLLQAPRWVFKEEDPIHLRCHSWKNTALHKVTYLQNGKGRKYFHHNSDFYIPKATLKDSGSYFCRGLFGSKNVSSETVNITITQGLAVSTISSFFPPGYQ

| Substance | EC50 (read off the curve) [1] [µg/mL] | EC50 [2] [nM] | EC50 [3] [nM] | EC50 [4] [nM] | EC50 [5] [nM] | EC50 [6] [nM] | EC50 [7] [nM] |
| --- | --- | --- | --- | --- | --- | --- | --- |
| Control (antibody) | 0.07 | – | – | – | – | – | – |
| commercial anti-Dectin-1 antibody 259931 | – | 0.3 | 16 | 0.8 | 0.9 | 1.2 | 16.5 |
| commercial anti-Dectin-1 antibody GE2 | – | 1.4 | – | 1.9 | 12 | 2.4 | – |

— patent publication US20250129168A1
